# Publication PMC3115401 (Traffic (Copenhagen, Denmark), 2011)
# T1: GST-Rtt109 (S. cerevisiae, UniProt Q07794 1-436)
# T1 sequence (looked up): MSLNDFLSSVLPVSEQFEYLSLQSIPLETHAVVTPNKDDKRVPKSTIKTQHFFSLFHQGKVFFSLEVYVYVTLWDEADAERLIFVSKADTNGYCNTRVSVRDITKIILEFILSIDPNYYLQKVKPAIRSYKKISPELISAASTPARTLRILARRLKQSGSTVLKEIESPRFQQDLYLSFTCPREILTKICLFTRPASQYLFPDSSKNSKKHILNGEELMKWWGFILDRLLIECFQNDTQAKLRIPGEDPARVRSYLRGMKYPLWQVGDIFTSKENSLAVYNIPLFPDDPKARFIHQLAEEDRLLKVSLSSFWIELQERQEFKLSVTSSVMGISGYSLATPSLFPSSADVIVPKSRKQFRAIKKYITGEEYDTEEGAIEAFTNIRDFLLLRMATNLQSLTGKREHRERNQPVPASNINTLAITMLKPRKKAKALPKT
# T2: GST-Kap60 (S. cerevisiae, UniProt Q02821 1-542)
# T2 sequence (looked up): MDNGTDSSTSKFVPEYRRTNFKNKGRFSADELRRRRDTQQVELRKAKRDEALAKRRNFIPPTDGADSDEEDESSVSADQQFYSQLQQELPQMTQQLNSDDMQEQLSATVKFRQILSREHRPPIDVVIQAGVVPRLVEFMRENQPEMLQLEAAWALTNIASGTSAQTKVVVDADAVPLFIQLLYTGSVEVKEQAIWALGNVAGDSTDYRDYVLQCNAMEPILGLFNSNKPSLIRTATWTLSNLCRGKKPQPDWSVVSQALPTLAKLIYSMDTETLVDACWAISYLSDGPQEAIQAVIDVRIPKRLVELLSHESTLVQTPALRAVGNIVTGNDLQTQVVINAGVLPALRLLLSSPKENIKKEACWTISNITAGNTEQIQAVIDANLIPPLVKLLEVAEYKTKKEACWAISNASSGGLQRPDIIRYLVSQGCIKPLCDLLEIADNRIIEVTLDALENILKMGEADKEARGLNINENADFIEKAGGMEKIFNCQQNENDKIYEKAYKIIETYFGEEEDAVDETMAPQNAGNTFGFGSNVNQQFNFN
# How the values were obtained:
# GST-Rtt109 = biological target: T1, GST-Rtt109; test: pull-down
# GST-Kap60 = biological target: T2, GST-Kap60; test: pull-down
binding result (GST-Rtt109),binding result (GST-Kap60),Binder
binds,,"MBP-Vps75(1–222) (domain or fragment, S. cerevisiae, UniProt P53853 1-222, looked up) MMSDQENENEHAKAFLGLAKCEEEVDAIEREVELYRLNKMKPVYEKRDAYIDEIAEFWKIVLSQHVSFANYIRASDFKYIDTIDKIKVDWLALESEMYDTRDFSITFHFHGIEGDFKEQQVTKVFQIKKGKDDQEDGILTSEPVPIEWPQSYDSINPDLIKDKRSPEGKKKYRQGMKTIFGWFRWTGLKPGKEFPHGDSLASLFSEEIYPFCVKYYAEAQRD"
binds,binds,"MBP-Vps75 wild type (natural protein, S. cerevisiae, UniProt P53853 1-264, looked up) MMSDQENENEHAKAFLGLAKCEEEVDAIEREVELYRLNKMKPVYEKRDAYIDEIAEFWKIVLSQHVSFANYIRASDFKYIDTIDKIKVDWLALESEMYDTRDFSITFHFHGIEGDFKEQQVTKVFQIKKGKDDQEDGILTSEPVPIEWPQSYDSINPDLIKDKRSPEGKKKYRQGMKTIFGWFRWTGLKPGKEFPHGDSLASLFSEEIYPFCVKYYAEAQRDLEDEEGESGLSADGDSEDDDGSLGEVDLPLSDEEPSSKKRKV"
binds,,"MBP-Vps75(K260G, K261G) (natural protein, S. cerevisiae, UniProt P53853 1-264, looked up) MMSDQENENEHAKAFLGLAKCEEEVDAIEREVELYRLNKMKPVYEKRDAYIDEIAEFWKIVLSQHVSFANYIRASDFKYIDTIDKIKVDWLALESEMYDTRDFSITFHFHGIEGDFKEQQVTKVFQIKKGKDDQEDGILTSEPVPIEWPQSYDSINPDLIKDKRSPEGKKKYRQGMKTIFGWFRWTGLKPGKEFPHGDSLASLFSEEIYPFCVKYYAEAQRDLEDEEGESGLSADGDSEDDDGSLGEVDLPLSDEEPSSGGRKV"
